# Experimental data from a protein production outcome set (Wang et al. 2014).
# Experiment: label from the status in PepcDB records
row,Sequence,protein production
1,SYASETASTQGLPALELDPEELLAQVQLLRAAVEGSRRESRELVGALERERRLNLEMRQRFERQFAAVSDQLLQLNHLQKESEALLQSLQEQLNEAELQKNAAQRELACVQRQLSLARAEADAGKRVLTTIAEKEALLRKTSQANADLQQIVMHLQAELRNSELQPSTSNASEERLHEAEIPSLADRDAYQTLQQTIEKLSAERDMWYHECARAKEESLRLQQDAERLRGLLDEQQRVHTTTQTLLQDRHLLMRRIIAALAEKYLMEKLPNQHYTQEIDSSPFQARGGTSVQEAHKHERLRRARSF,not failed
2,MPRRKTKKREEGLSAIDLANEEMGYVLSLIERTDQSLFLTGKAGTGKSTLLRHICATTHKKFVVLAPTGLAALNVGGQTLHSFFKLPLRPIPPNDPDLSTRDRRVFDVFRYTNEHKKLIRSLDLIIIDEVSMVRADVIDAIDKLLGIYRGRQERPFGGVQMLFVGDLYQLEPVVTADDADILKRFYPNPFFFSSEALRATPPVTVELTKVYRQTEQAFVQILDRIRSGRLTEQDLQDINKCVNRHYEPPKDEPVITLATKRRHVSYINERQLEQLQGDPVTLYGTIEGDFPSSSLPTEEELTLKQDAQVIFVSNDKDRRWVNGTLGIVAGFDQESETIDVCLSTGEVVTVEPCIWDNKRFSYNEQANKVEEEVLGRFVQYPLKLAWAITVHKSQGLTFDRVIIDFSEGTFAGGQAYVALSRCRSLEGMVLRAPLAGRDVIVRREIIDFYSRANDLEIINGSLLRAEAEREYAQALRLWNARHYTEAIGAFSQALARKNELDDPLFRRLLVSKLFEMEYARRREEELRRELAEQREVMRRLAKEYVLMGNDCITEAHDAHAAIRCYDKALTLYPDYVEALVRKGKTLAGLNEITTSLSTLNQAIAIAPMDFTARFTLGQVLEKFAYYEEALDAYRQADGLNSQSRSLLKRLIALCEELDEEDEANLYRIRLRKNRDQTGHK,failed
3,MTEWYVVLPATILLIALSAFFVIIEFALLAARRNRLEETVETSRSSRAALRSLNELTLMLAGAQLGITMVTFALGAITKPWVHYALMPLFEWARIPLVMADVIAFILSLFIVTFLHLVIGEMAPKSWAIAHPETALRTIAIPARGFINLFRPLLQWINKMANDLVRKVGETPVDRAAAGGYDTDTLHALIEHSRETGALDQQSAAQISGIIKLDKITVGQTLTASPFTHSASATVAEVQAAAQRSGSLRVLIDAPSHLFPHVIHVRDTLGASPDEKASKWSRPILTVAETDTLHQALEYMREHNEQISAVLSADGKTVLGVITWDHILKYLWPASV,failed
4,MNLPHLMSLASHLASHGFFCLRFTCKGLNIVHRIKAYKSVLNYLKTSGEYKLAGVFLGGRSMGSRAAASVMCHIEPDDGDDFVRGLICISYPLHHPKQQHKLRDEDLFRLKEPVLFVSGSADEMCEKNLLEKVAQKMQAPHKIHWIEKANHSMAVKGRSTNDVFKEINTQILFWIQEITEMDKKCH,failed
5,MDERRAVVLVDELHLRKGGYEAEKVRVFAVRVSETLWAFKALWGSTPFTGTTFV,failed
6,MGMPAGPYLLTPPGVYAPQHDTDLLARALRREDIDTSTEVLDLGTGSGALAVHAARLGARVTAVDISRRAVLTARLNALLAGRRVTVRRGDLTAAVPGRSYDLVVSNPPYVPSPSARLPSRGAARAWDAGHDGRAFVDRICDTAPAALRAGGALLIVHSALCGTRPTLDRLAAAGLDASVTDRAFVPFGPVLRARRAWLRRQGLLTDENLEELVVIRAEHS,failed
7,LKLEVVEDKQYGRLANRIENVVSQERTRKKFESLVSDSPDGIVHLTTNGTILSVNPSMAGRLGADPDTLVGQQLSAVMDSEAANQRLEAGKSAVENGTATRSEDAVGGRHYHNQYIPVDSHR,failed
8,MSENMVNLPDSLYEDYSKLKLTSPSNASSSSSAPPPRLSVVAHPTVEMIIQWVCDIHKPKSYMSDFALHNLAYHRNDFEFLPSLLWESKNTVYIMLQEVFEAYRHLAGHISLRLFPHPLNPLRVYNVFLLFQSMACHPDTSRQFLRAKMPNYFYPLMDTGLIDKSDECMRLAALGVIAHMLKASEDGAVNRYLMESGVVGFCVKPIEFGSTETKKVALYILDKIMSTDQGLYYCCVLADRFYVIDELLKKVLFYLSNMVRPPSSLFSLVTGCYVKLSQNSRARNGIRRYTPFLLFDGTFSRLYAEDPVAANNRIQLLQNLDN,failed
9,MKSRIIVRTSFDAAHAVKVGDHWEDVHGHTFFLEVAIEGEIKNGYVMDFLELRKIVEEITKELDHRNLNNIFENPTTENIALWIGERIRDKLPPYVKLKRVVLWEGKDNGVELEW,not failed
10,MELDAFNKGAIPLINHPDCSALGYQVIQELGRNQEEGRITYLAHHHQSKQQVVIKEFSFAHTYTDWCDFTAYESEAKILQKLNHPRIPRYLDSFATQTGFYLVQEYKHALPLSSKRSFQPEEIKQIAVSVLEILVYLQQRIDPIIHRDIKPENILVDEQLNAYLVDFGLARVQDTKIALTSLLTGTPGFIPPEEQLGYSLSLASDLYSVGATLICLLANIRSVDIGKLIDSKGYFDFQKLDSQIDLRFRSWLMGMVEPKWQYRYTNAADALAALQPIQVTGNATAMEILATVIKLKYQTTVLGLAIIGVLAVAGATLILSQQGGAAQQLQEARK,failed
11,MYKTQKNHIRCDKQTYRLLRQLCHFSKNLYNYALYHIRQHYFKTQEYLRYESVYHLVKESEDYRLLPSQVAQQTLISVIEAFKSFLGLLRAEKEGKVEERVSMPKYLPKDGMYQIVFPKDQFKTEGKKVRLSLGRGFAKEFGVKYLYFDLPATVLGKEIREVRIIPRFNGRWFEIEYVYEDKQQLGIFDLSRYLGVDLGLDNFAAVVDTIGTAFLIEGRFLKSVNRWYNKERARLQSIYSRQGIKCGRKLALVSRKRQHIIDNFLNQAVSLIIKHCLNNQISAVVVGEMKDIKQGIELGVVNNQNFVGIPYDKFKRKLKSKCMYYGIRYVEVDESYTSQRCSRCGHVSKSSRRYRGLYVCKKCGYVVNADINGAINIVAKVAGESVVKQITSSGCVNHPVRIRVA,failed
12,MTFPSVALVVVYVGGLVILGFGMAKIVYVPMALYFDWLYRSICARHRYSVLSDRPLVSVIVPGYNEAVVITGCVESILASRYLRLEVILVDDGSTDETASIMEGLAQQYDRVRFLSQANAGKGAALNCGIAAALGDILMFVDADGVFAPDTLIHMLEGFDDPKVGAVCGDDRPVNLDRLQTMMLAILSHVGTGLVRRALSLMNCLPIVSGNIGAFRSDLVRELGGFHEDTLGEDLELTWRVYKAGYRVRFQPKALVYAESPSTMGGLWRQRVRWSRGLLQTLRLHSGMLGSRRYGMFGAFLVFNAITMVLIPILQLVVLALLPFLYVAGMGPVPAEVLAILGWLGVFVSLALIVFSVGLNRSWRDLRFLWTLPLWPFYSVFVGLALASAIVKEIRGSPARWNKLQRTGIKSVTATHSVTSTDVSQRQEAHA,failed
13,ESLKAGSSWQCDTCLLQNKVTDNKCIACQAAKLSPRDTAKQTGIETPNKSGKTTLSASGTGFGDKFKPVIGTWDCDTCLVQNKPEAIKCVACETPKPGTCVKRALTLTVV,failed
14,MHISIKTLEGKRIKLEVEDSSNTIDLKIHGEPTRELVVDLSPTPDTGAIMMIFIKTLTGRTNTYEVKGSDTIRELKAKHEEKEGIPVEQQRLIFQGRISIKTVKGKSINLEVADSSDTIDLKINGEPTRQLVLRLGPAVLMRIFVSTIKEKTFILEVKGSDTIKKLKSMIHDQGGPPVDQQDLNHLGTKLKNNATISDYNIKPDANLVIMQNGCIC,failed
15,MSSVKDTMTTQVATVSPNQTIQEAASLMKQHNVGAIPVVEQGVLKGMLTDRDIALRTTAQGRDGQTPVSEVMSTELVSGNPNMSLEDASQLMAQHQIRRLPIVDQNNLVGIVALGDLAVNQMSNESAGSALTNISHQNIH,failed
16,MGIKHLNLTVADVVAAREFLEKYFGLTCSGTRGNAFAVMRDNDGFILTLMKGKEVQYPKTFHVGFPQESEEQVDKINQRLKEDGFLVEPPKHAHAYTFYVEAPGGFTIEVMC,not failed
17,MFKSNYKGYGSGIISAMAWGLDTVLVGVILSMAPFINTESAIMLAPFVSTFLHDFFSTLWMFIYMIFTRQVGKLFKSLKTPSTKYVILASIFGGPMGMTGYLLSVNYIGPSYAATISSIYPAVGAVLAAIFLKEKISRKGYIGLTISILGIALLGFGNDGGKASLIGFLFAGLSVLGWGSESVICSYGMKDEDISPKQALQIRQFISALFSGVIILPLLKAYPLVFEVLKGNVTFVIIGTALMGTISYVCYYTAIHKLGPTRAMGLNITYVVWAMIFDKVLLGHNITIKMVICALMVMIGSFVVATQPAHEEELTNVTNTAV,failed
